Reference: publication PMC11480441, “Structure of tetrameric forms of the serotonin-gated 5-HT3A receptor ion channel” (The EMBO Journal, 2024)
Values joined by “and” are separate entries in the source; they are usually repeats but may differ in a detail not shown here. Identical values can stand only once.

Tests used:
[1] = molecular target: the molecule itself; assay: cryo-EM structure; single-particle cryo-EM of purified 5-HT3AR in saposin lipoprotein (Salipro) with brain polar lipids, 25 mM HEPES, 125 mM NaCl, pH 7.4; apo, with serotonin (uncaged RuBi-5-HT, 200 uM), and with 100 uM 5-HT + 2 mM CaCl2; 2D and 3D classification without imposed symmetry
[2] = molecular target: the molecule itself; assay: native gel or EMSA; blue native PAGE, 5-20% gradient gel, 4 °C; 10 ug solubilised 5-HT3AR incubated 30 min with 0 to 10 mM SDS; BSA oligomers as size markers

B1: murine wild-type serotonin 5-HT3A receptor (receptor, mouse (murine), UniProt P23979 24-489, looked up)
chain: SRRRATQARDTTQPALLRLSDHLLANYKKGVRPVRDWRKPTTVSIDVIMYAILNVDEKNQVLTTYIWYRQYWTDEFLQWTPEDFDNVTKLSIPTDSIWVPDILINEFVDVGKSPNIPYVYVHHRGEVQNYKPLQLVTACSLDIYNFPFDVQNCSLTFTSWLHTIQDINITLWRSPEEVRSDKSIFINQGEWELLEVFPQFKEFSIDISNSYAEMKFYVIIRRRPLFYAVSLLLPSIFLMVVDIVGFCLPPDSGERVSFKITLLLGYSVFLIIVSDTLPATAIGTPLIGVYFVVCMALLVISLAETIFIVRLVHKQDLQRPVPDWLRHLVLDRIAWILCLGEQPMAHRPPATFQANKTDDCSGSDLLPAMGNHCSHVGGPQDLEKTPRGRGSPLPPPREASLAVRGLLQELSSIRHFLEKRDEMREVARDWLRVGYVLDRLLFRIYLLAVLAYSITLVTLWSIWHYS
modifications: densities resembling N-linked glycosylation at N82, N148 and N164
notes: 5-HT3A receptor subunit, mouse, wild type, full length; The same subunit is found as a pentamer and as a tetramer (4 or 5 copies); The intracellular domain is not modelled in the tetramer structures; also called 5-HT3R; 5-HT3AR-Salipro; source: purified (C12E9 solubilisation, Streptactin, SEC) and reconstituted in saposins with porcine brain polar lipids; also unpurified in cell-derived plasma …
[1]
  stoichiometry N: 4 and 5
[2]
  stoichiometry N: 3 and 2
